Measured values reported in patent US20240270821A1, “GIP/GLP1/GCG TRI-RECEPTOR AGONISTS AND USES THEREOF” (priority 2023, published 2024).

T1: human GIP receptor (human) (UniProt P48546)
T1 sequence (looked up): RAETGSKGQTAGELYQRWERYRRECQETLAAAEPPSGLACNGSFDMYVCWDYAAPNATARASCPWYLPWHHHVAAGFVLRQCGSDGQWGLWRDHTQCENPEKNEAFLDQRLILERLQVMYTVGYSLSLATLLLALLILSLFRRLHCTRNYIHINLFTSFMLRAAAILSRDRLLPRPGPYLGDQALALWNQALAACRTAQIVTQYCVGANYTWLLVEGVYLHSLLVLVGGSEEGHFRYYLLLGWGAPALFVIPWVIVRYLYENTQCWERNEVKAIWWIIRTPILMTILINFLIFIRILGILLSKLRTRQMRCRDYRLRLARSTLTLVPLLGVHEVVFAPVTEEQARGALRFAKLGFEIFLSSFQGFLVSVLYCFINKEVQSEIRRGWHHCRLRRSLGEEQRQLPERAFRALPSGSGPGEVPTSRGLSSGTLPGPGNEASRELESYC


Legend:
Test in all cases: cell-based or functional assay
[1] = target: hGLP-1R (Homo sapiens, UniProt P43220)
Chain of hGLP-1R (P43220 24-463): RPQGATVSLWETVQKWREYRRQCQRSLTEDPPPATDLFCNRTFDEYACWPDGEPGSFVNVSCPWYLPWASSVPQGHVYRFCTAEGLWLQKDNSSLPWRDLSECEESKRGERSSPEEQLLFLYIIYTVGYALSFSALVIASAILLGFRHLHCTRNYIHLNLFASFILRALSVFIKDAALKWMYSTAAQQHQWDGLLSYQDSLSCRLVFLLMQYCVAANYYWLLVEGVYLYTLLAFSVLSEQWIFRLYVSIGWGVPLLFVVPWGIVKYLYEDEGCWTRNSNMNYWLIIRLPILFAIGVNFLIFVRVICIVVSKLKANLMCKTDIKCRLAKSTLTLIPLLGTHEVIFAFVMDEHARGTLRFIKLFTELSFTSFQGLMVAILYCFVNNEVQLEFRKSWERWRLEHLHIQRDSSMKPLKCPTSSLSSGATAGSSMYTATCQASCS

[2] = target: T1, human GIP receptor (human)
[3] = target: human glucagon receptor (human) (UniProt P47871)
Chain of human glucagon receptor (human) (P47871 26-477): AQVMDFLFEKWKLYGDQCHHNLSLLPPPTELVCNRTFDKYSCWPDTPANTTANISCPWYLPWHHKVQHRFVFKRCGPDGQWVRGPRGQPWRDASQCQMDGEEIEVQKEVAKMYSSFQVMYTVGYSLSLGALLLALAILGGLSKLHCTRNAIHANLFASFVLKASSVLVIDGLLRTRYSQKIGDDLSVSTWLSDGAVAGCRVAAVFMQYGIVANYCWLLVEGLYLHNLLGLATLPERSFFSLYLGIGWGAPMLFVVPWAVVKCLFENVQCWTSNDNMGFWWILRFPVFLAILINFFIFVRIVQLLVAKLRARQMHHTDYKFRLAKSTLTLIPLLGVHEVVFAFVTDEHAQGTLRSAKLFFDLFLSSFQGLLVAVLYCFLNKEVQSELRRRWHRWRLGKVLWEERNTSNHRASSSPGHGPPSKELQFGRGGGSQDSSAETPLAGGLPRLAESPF

Row | Binder | cAMP Rel EC50, nM (1% HSA) [1] [nM] | cAMP Rel EC50, nM (1% HSA) [2] [nM] | cAMP Rel EC50, nM (1% HSA) [3] [nM] | Relative cAMP EC50 [1] [nM] | Relative cAMP EC50 [2] [nM] | Relative cAMP EC50 [3] [nM]
1 | YXQGTFTSDXSXXLDXKAQXQFIEYLLAGGPSSGAPPPSGSEE (non-natural residues; (γGlu)2-C18 diacid on Lys; C-terminal amide; synthetic construct; SITE 2: note = 2-Aminoisobutyric Acid; SITE 10: note = 3-(4-Pyridyl)-L-alanine; SITE 12: note = L-ornithine; SITE 13: note = alpha-methyl-leucine; SITE 16: note = L-ornithine; SITE 17: note = Lysine is chemically modified through conjugation of the epsilon-amino group of the Lys) [Example 1002] | 1290 | 11.6 | 197 | – | – | –
2 | YXQGTFTSDXSXXLDXKAQXEFIEYLLAGGPSSGAPPPSGSEE ((γGlu)2-C18 diacid on Lys; non-natural residues; amide; synthetic construct; SITE 2: note = 2-Aminoisobutyric Acid; SITE 10: note = 3-(4-Pyridyl)-L-alanine; SITE 12: note = L-ornithine; SITE 13: note = alpha-methyl-leucine; SITE 16: note = L-ornithine; SITE 17: note = Lysine is chemically modified through conjugation of the epsilon-amino group of the Lys) [Example 1003] | 1950 | 15.9 | 371 | – | – | –
3 | YXQGTFTSDXSXXLDXKAQXXFIEYLLAGGPSSGAPPPSGSEE (non-natural residues; C18 diacid-(γ-Glu)2 acyl on Lys; C-terminal amide; synthetic construct; SITE 2: note = 2-Aminoisobutyric Acid; SITE 10: note = 3-(4-Pyridyl)-L-alanine; SITE 12: note = L-ornithine; SITE 13: note = alpha-methyl-leucine; SITE 16: note = L-ornithine; SITE 17: note = Lysine is chemically modified through conjugation of the epsilon-amino group of the Lys) [Example 1004] | 973 | 35.4 | 237 | – | – | –
4 | YXQGTFTSDXSQXLDXKAQXQFIEYLIAGGPSSGAPPPSGSEE (non-natural residues; Lys acylated C18 diacid via γGlu2; C-term amide; synthetic construct; SITE 2: note = 2-Aminoisobutyric Acid; SITE 10: note = 3-(4-Pyridyl)-L-alanine; SITE 13: note = alpha-methyl-leucine; SITE 16: note = L-ornithine; SITE 17: note = Lysine is chemically modified through conjugation of the epsilon-amino group of the Lysine side chain with (gamma-Gl)) [Example 1005] | 171 | 14.5 | 1670 | 1.48 | 0.152 | 9.46
5 | YXQGTFTSDXSQXLDXKAQXQFIEYLLAGGPSSGAPPPSGSEE ((γGlu)2-C18 diacid on Lys; non-natural residues; amide; synthetic construct; SITE 2: note = 2-Aminoisobutyric Acid; SITE 10: note = 3-(4-Pyridyl)-L-alanine; SITE 13: note = alpha-methyl-leucine; SITE 16: note = L-ornithine; SITE 17: note = Lysine is chemically modified through conjugation of the epsilon-amino group of the Lysine side chain with (gamma-Gl)) [Example 1006] | 574 | 11.8 | 315 | 5.12 | 0.109 | 4.28
6 | YXQGTFTSDXSQXLDXKAQXAFIEYLIAGGPSSGEPPPSGS (non-natural residues; lipidated Lys; C-terminal amide; synthetic construct; SITE 2: note = 2-Aminoisobutyric Acid; SITE 10: note = 3-(4-Pyridyl)-L-alanine; SITE 13: note = alpha-methyl-leucine; SITE 16: note = L-ornithine; SITE 17: note = Lysine is chemically modified through conjugation of the epsilon-amino group of the Lysine side chain with (gamma-Gl)) [Example 1007] | 95.1 | 12 | 636 | 0.668 | 0.116 | 5.34
7 | YXQGTFTSDXSQXLDXKAQXAFIEYLIAGGPSSGEPPPSGSE (non-natural residues; lipidated Lys; C-terminal amide; synthetic construct; SITE 2: note = 2-Aminoisobutyric Acid; SITE 10: note = 3-(4-Pyridyl)-L-alanine; SITE 13: note = alpha-methyl-leucine; SITE 16: note = L-ornithine; SITE 17: note = Lysine is chemically modified through conjugation of the epsilon-amino group of the Lysine side chain with (gamma-Gl)) [Example 1008] | 126 | 15.2 | 1010 | 1.09 | 0.14 | 7.47
8 | YXQGTFTSDXSXXLDKKAQXAFIEYLIAGGPSSGAPPPSGSE (non-natural residues; lysine acylated with C18 diacid; C-terminal amide; synthetic construct; SITE 2: note = 2-Aminoisobutyric Acid; SITE 10: note = 3-(4-Pyridyl)-L-alanine; SITE 12: note = L-ornithine; SITE 13: note = alpha-methyl-leucine; SITE 17: note = Lysine is chemically modified through conjugation of the epsilon-amino group of the Lysine side chain with (gamma-Gl)) [Example 1009] | 174 | 9.72 | 268 | 2.1 | 0.13 | 4.21
9 | YXQGTFTSDXSXXLDKKAQXAFIEYLIAGGPSSGAPPPSESE (Aib, 4Pal, Orn, αMeL, Me4Pal; acylated Lys; C-terminal amide; synthetic construct; SITE 2: note = 2-Aminoisobutyric Acid; SITE 10: note = 3-(4-Pyridyl)-L-alanine; SITE 12: note = L-ornithine; SITE 13: note = alpha-methyl-leucine; SITE 17: note = Lysine is chemically modified through conjugation of the epsilon-amino group of the Lysine side chain with (gamma-Gl)) [Example 1010] | 218 | 15.1 | 214 | 2.89 | 0.159 | 4.5
10 | YXQGTFTSDXSXXLDXKAQXAFIEYLIAGGPSSGAPPPSGSE (non-natural residues; Lys acylated C18 diacid; C-terminal amide; synthetic construct; SITE 2: note = 2-Aminoisobutyric Acid; SITE 10: note = 3-(4-Pyridyl)-L-alanine; SITE 12: note = L-ornithine; SITE 13: note = alpha-methyl-leucine; SITE 16: note = L-ornithine; SITE 17: note = Lysine is chemically modified through conjugation of the epsilon-amino group of the Lys) [Example 1011] | 148 | 13.5 | 459 | – | – | –
11 | YXQGTFTSDXSXXLDXKAQXAFIEYLIAGGPSSGAPPPSESE (Aib, 4Pal, Orn, αMeL, Me4Pal; K (γGlu)2-C18 diacid; amide; synthetic construct; SITE 2: note = 2-Aminoisobutyric Acid; SITE 10: note = 3-(4-Pyridyl)-L-alanine; SITE 12: note = L-ornithine; SITE 13: note = alpha-methyl-leucine; SITE 16: note = L-ornithine; SITE 17: note = Lysine is chemically modified through conjugation of the epsilon-amino group of the Lys) [Example 1012] | 223 | 15.9 | 533 | – | – | –
12 | YXQGTFTSDXSXXLDXKAQXAFIEXLIEGGPSSGAPPPSGS (Aib, 4Pal, Orn, αMeL, Me4Pal, αMeY, (γGlu)2-C18 diacid, amide; synthetic construct; SITE 2: note = 2-Aminoisobutyric Acid; SITE 10: note = 3-(4-Pyridyl)-L-alanine; SITE 12: note = L-ornithine; SITE 13: note = alpha-methyl-leucine; SITE 16: note = L-ornithine; SITE 17: note = Lysine is chemically modified through conjugation of the epsilon-amino group of the Lys) [Example 1013] | 137 | 22.6 | 285 | – | – | –
13 | YXQGTFTSDXSXXLDKKAQXAFIEXLIAGGPSSGEPPPSGS (Aib, 4Pal, Orn, αMeL, Me4Pal, αMeY; γGlu2-C18 diacid Lys; amide; synthetic construct; SITE 2: note = 2-Aminoisobutyric Acid; SITE 10: note = 3-(4-Pyridyl)-L-alanine; SITE 12: note = L-ornithine; SITE 13: note = alpha-methyl-leucine; SITE 17: note = Lysine is chemically modified through conjugation of the epsilon-amino group of the Lysine side chain with (gamma-Gl)) [Example 1014] | 86.4 | 5.62 | 277 | 0.718 | 0.0412 | 3.62
14 | YXQGTFTSDXSXXLDKKAQXAFIEXLIAGGPSSGAPPPEGS (non-natural residues (Aib, 4Pal, Orn, Me4Pal, αMeY); lipidated K; amide; synthetic construct; SITE 2: note = 2-Aminoisobutyric Acid; SITE 10: note = 3-(4-Pyridyl)-L-alanine; SITE 12: note = L-ornithine; SITE 13: note = alpha-methyl-leucine; SITE 17: note = Lysine is chemically modified through conjugation of the epsilon-amino group of the Lysine side chain with (gamma-Gl)) [Example 1015] | 92.4 | 9.08 | 357 | – | – | –
15 | YXQGTFTSDXSQXLDXKAQXAFIEYLIEAGPSSGAPPPSGS (not fully specified; Aib, 4Pal, αMeL, Orn, Me4Pal, D-Ala; acylated Lys; C-terminal amide; synthetic construct; SITE 2: note = 2-Aminoisobutyric Acid; SITE 10: note = 3-(4-Pyridyl)-L-alanine; SITE 13: note = alpha-methyl-leucine; SITE 16: note = L-ornithine; SITE 17: note = Lysine is chemically modified through conjugation of the epsilon-amino group of the Lysine side chain with (2-[2-(2-) [Example 1016] | 156 | 30.6 | 626 | – | – | –
16 | YXQGTFTSDXSQXLDXKAQXAFIEYLIEAGPSSGAPPPSGS (not fully specified; Aib, 4Pal, αMeL, Orn, Me4Pal, D-Ala; acylated Lys; amide; synthetic construct; SITE 2: note = 2-Aminoisobutyric Acid; SITE 10: note = 3-(4-Pyridyl)-L-alanine; SITE 13: note = alpha-methyl-leucine; SITE 16: note = L-ornithine; SITE 17: note = Lysine is chemically modified through conjugation of the epsilon-amino group of the Lysine side chain with (gamma-Gl)) [Example 1017] | 118 | 28.3 | 649 | – | – | –
